Measurements published in patent publication US11306156.

What was measured:
[1] = target: D3H44 Fab heavy chain L124W_L143E_K145T_Q179E, ABD2-His6 tagged; assay: LCCA, SPR of light chain tags; L1:L2 DNA 1:9 normalized to 1:1; competing light chain m12
[2] = target: D3H44 Fab heavy chain L124A_L143F_Q179K, ABD2-His6 tagged; assay: LCCA, SPR of light chain tags; L1:L2 DNA 1:3 normalized to 1:1; competing light chain m12
[3] = target: D3H44 Fab heavy chain L124W_L143E_K145T_Q179E, ABD2-His6 tagged; assay: as above
[4] = target: D3H44 Fab heavy chain L124E_L143D_K145T, C-terminal ABD2-His6 tag; assay: LCCA set 9240 (co-expression; SPR read-out of light-chain tags; L1:L2 DNA 1:3, normalized to 1:1); competing light chain m13
[5] = target: D3H44 Fab heavy chain L124E_L143D_K145M, C-terminal ABD2-His6 tag; assay: LCCA set 9202 (co-expression; SPR read-out of light-chain tags; L1:L2 DNA 1:3, normalized to 1:1); competing light chain m13
[6] = target: D3H44 Fab heavy chain L124R_S186K, C-terminal ABD2-His6 tag; assay: LCCA set 9488 (co-expression; SPR read-out of light-chain tags; L1:L2 DNA 1:3, normalized to 1:1); competing light chain m9
[7] = target: D3H44 Fab heavy chain L124R_S186R, C-terminal ABD2-His6 tag; assay: LCCA set 9544 (co-expression; SPR read-out of light-chain tags; L1:L2 DNA 1:3, normalized to 1:1); competing light chain m13
[8] = target: D3H44 Fab heavy chain L124E_L143E_K145T, C-terminal ABD2-His6 tag; assay: LCCA co-expression, SPR tag read-out; DNA 1:3 norm. to 1:1; competing light chain m8
[9] = target: D3H44 Fab heavy chain L124R_S186R, C-terminal ABD2-His6 tag; assay: as above
[10] = target: D3H44 Fab heavy chain L124R_Q179K, C-terminal ABD2-His6 tag; assay: as above
[11] = target: D3H44 Fab heavy chain L124E_L143E_K145T, C-terminal ABD2-His6 tag; assay: LCCA co-expression, SPR tag read-out; DNA 1:3 norm. to 1:1; competing light chain m7
[12] = target: D3H44 Fab heavy chain L124R_Q179K, C-terminal ABD2-His6 tag; assay: as above
[13] = target: D3H44 Fab heavy chain L124E_L143E_K145T, C-terminal ABD2-His6 tag; assay: LCCA (co-expression, SPR read-out of light chain tags), L1:L2 DNA 1:3 normalised to 1:1; competitor m8
[14] = target: D3H44 Fab heavy chain L124R_S186R, C-terminal ABD2-His6 tag; assay: as above
[15] = target: D3H44 Fab heavy chain L124R_S186K, C-terminal ABD2-His6 tag; assay: as above
[16] = target: D3H44 Fab heavy chain L124E_L143E_K145T, C-terminal ABD2-His6 tag; assay: LCCA set 9320 (co-expression; SPR read-out of light-chain tags; L1:L2 DNA 1:3, normalized to 1:1); competing light chain m9
[17] = target: D3H44 light chain Q38E_Q124E_Q160E_T180E; assay: LCCA, SPR tag readout, L1:L2 DNA 1:9 normalized to 1:1; competitor m26
[18] = target: D3H44 light chain Q38R_Q124R_Q160K_T178R; assay: LCCA, SPR tag readout, L1:L2 DNA 1:3 normalized to 1:1; competitor m19
[19] = target: D3H44 light chain Q38E_Q124E_Q160E_T180E; assay: LCCA, SPR tag readout, L1:L2 DNA 1:3 normalized to 1:1; competitor m26
[20] = target: D3H44 light chain Q38R_Q124R_Q160K_T178R; assay: LCCA, SPR tag readout, L1:L2 DNA 1:9 normalized to 1:1; competitor m19
[21] = target: tissue factor (TF) antigen (UniProt P13726); assay: SPR (ProteOn XPR36), Fab captured on anti-penta His, TF injected, 1:1 model
[22] = target: tissue factor (TF) antigen (UniProt P13726); assay: SPR (ProteOn XPR36), Fab captured on anti-penta His, TF injected at 0.74-60 nM, 1:1 model; median
[23] = target: D3H44 Fab heavy chain L124R_Q179K, C-terminal ABD2-His6 tag; assay: LCCA (co-expression, SPR read-out of light chain tags), L1:L2 DNA 1:3 normalised to 1:1; competitor m10
[24] = target: D3H44 Fab heavy chain L124E_L143D_K145M, C-terminal ABD2-His6 tag; assay: as above
[25] = target: D3H44 Fab heavy chain L124R_Q179K, C-terminal ABD2-His6 tag; assay: LCCA set 9384 (co-expression; SPR read-out of light-chain tags; L1:L2 DNA 1:3, normalized to 1:1); competing light chain m10
[26] = target: D3H44 Fab heavy chain L124R_D146N_Q179K, C-terminal ABD2-His6 tag; assay: LCCA set 9350 (co-expression; SPR read-out of light-chain tags; L1:L2 DNA 1:3, normalized to 1:1); competing light chain m12
[27] = target: D3H44 Fab heavy chain L124E_L143E_K145T, C-terminal ABD2-His6 tag; assay: LCCA set 9298 (co-expression; SPR read-out of light-chain tags; L1:L2 DNA 1:3, normalized to 1:1); competing light chain m10
[28] = target: D3H44 Fab heavy chain L124E_L143E_K145M, C-terminal ABD2-His6 tag; assay: LCCA co-expression, SPR tag read-out; DNA 1:3 norm. to 1:1; competing light chain m8
[29] = target: D3H44 Fab heavy chain L124E_L143D_K145T, C-terminal ABD2-His6 tag; assay: as above
[30] = target: D3H44 Fab heavy chain L124E_L143E_K145T, C-terminal ABD2-His6 tag; assay: LCCA set 9271 (co-expression; SPR read-out of light-chain tags; L1:L2 DNA 1:3, normalized to 1:1); competing light chain m12
[31] = target: D3H44 Fab heavy chain L124E_L143E_K145M, C-terminal ABD2-His6 tag; assay: LCCA set 9266 (co-expression; SPR read-out of light-chain tags; L1:L2 DNA 1:3, normalized to 1:1); competing light chain m9
[32] = target: D3H44 Fab heavy chain L124E_L143E_K145M, C-terminal ABD2-His6 tag; assay: LCCA co-expression, SPR tag read-out; DNA 1:3 norm. to 1:1; competing light chain m7
[33] = target: D3H44 Fab heavy chain L124R_Q179K, C-terminal ABD2-His6 tag; assay: LCCA set 9388 (co-expression; SPR read-out of light-chain tags; L1:L2 DNA 1:3, normalized to 1:1); competing light chain m9
[34] = target: D3H44 Fab heavy chain L124R_Q179K, C-terminal ABD2-His6 tag; assay: LCCA (co-expression, SPR read-out of light chain tags), L1:L2 DNA 1:3 normalised to 1:1; competitor m11
[35] = target: D3H44 Fab heavy chain L124E_L143D_K145T, C-terminal ABD2-His6 tag; assay: as above
[36] = target: D3H44 Fab heavy chain L124E_L143D_K145M, C-terminal ABD2-His6 tag; assay: as above
[37] = target: D3H44 Fab heavy chain L124R_Q179K, C-terminal ABD2-His6 tag; assay: LCCA (co-expression, SPR read-out of light chain tags), L1:L2 DNA 1:3 normalised to 1:1; competitor m9
[38] = target: D3H44 Fab heavy chain L124E_L143D_K145T, C-terminal ABD2-His6 tag; assay: as above
[39] = target: D3H44 Fab heavy chain L124E_L143D_K145M, C-terminal ABD2-His6 tag; assay: as above
[40] = target: D3H44 Fab heavy chain L124E_L143E_K145M, C-terminal ABD2-His6 tag; assay: LCCA set 9259 (co-expression; SPR read-out of light-chain tags; L1:L2 DNA 1:3, normalized to 1:1); competing light chain m10
[41] = target: D3H44 Fab heavy chain L124E_L143E_K145T, C-terminal ABD2-His6 tag; assay: LCCA set 9316 (co-expression; SPR read-out of light-chain tags; L1:L2 DNA 1:3, normalized to 1:1); competing light chain m9

With “D3H44 light chain Q124K_V133A_S176T_T178R, HA or FLAG tagged” the H2L2:H2L1 normalized median ratio [1] was 92%, the H1L1:H1L2 normalized median ratio [2] was 5% and the H2L2:H2L1 normalized median ratio [3] was 89%.

Substance “D3H44 light chain V133G_S176D_T178E_T180E, N-terminal HA or FLAG tag” has an H1L1:H1L2 normalized median ratio (H1L2 part) [4] of 13%, an H1L1:H1L2 normalized median ratio (H1L2 part) [5] of 16% and an H2L2:H2L1 normalized median ratio (H2L2 part) [6] of 91%. For the same substance, the H2L2:H2L1 normalized median ratio (H2L2 part) [7] was 92%, the H1L1:H1L2 normalized median ratio (% (ratio normalized to 100)) [8] was 5 and the H2L2:H2L1 normalized median ratio (% (ratio normalized to 100)) [9] was 91. The H2L2:H2L1 normalized median ratio (% (ratio normalized to 100)) [10] was 90, the H1L1:H1L2 normalized median ratio (% (ratio normalized to 100)) [11] was 6 and the H2L2:H2L1 normalized median ratio (% (ratio normalized to 100)) [12] was 90. For the same substance, the H1L1:H1L2 normalized median ratio [13] was 13%, the H2L2:H2L1 normalized median ratio [14] was 94% and the H2L2:H2L1 normalized median ratio [15] was 93%. For the same substance, the H1L1:H1L2 normalized median ratio (H1L2 part) [16] was 14%.

Work on “D3H44 Fab heavy chain Q39E_L143E_K145T_H172R_Q179E” yielded an H1L1:H1L2 normalized median ratio [17] of 5%, an H1L1:H1L2 normalized median ratio [18] of 97% and an H1L1:H1L2 normalized median ratio [19] of 3%. For the same substance, the H1L1:H1L2 normalized median ratio [20] was 95% and the H1L1:H1L2 normalized median scalar value ln(r1/f1) [20] was 2.96.

“wild-type D3H44 Fab heterodimer constructs (Fab constructs containing HA tag or FLAG tag)” was tested, and the fold difference between the maximum and minimum KD values [21] was 2.6 fold and the Kd [22] was 0.15 nM.

With “D3H44 light chain Q124E_V133G_S176D_T178E_T180E, N-terminal HA or FLAG tag” the H2L2:H2L1 normalized median ratio [23] was 92%, the H1L1:H1L2 normalized median ratio [24] was 9% and the H2L2:H2L1 normalized median ratio (H2L2 part) [25] was 92%. The H2L2:H2L1 normalized median ratio (H2L2 part) [26] was 82%, the H1L1:H1L2 normalized median ratio (H1L2 part) [27] was 12% and the H1L1:H1L2 normalized median ratio (% (ratio normalized to 100)) [28] was 5. For the same substance, the H2L2:H2L1 normalized median ratio (% (ratio normalized to 100)) [10] was 92, the H1L1:H1L2 normalized median ratio (% (ratio normalized to 100)) [29] was 8 and the H1L1:H1L2 normalized median ratio (H1L2 part) [30] was 5%. The H1L1:H1L2 normalized median ratio (H1L2 part) [31] was 16%, the H1L1:H1L2 normalized median ratio (% (ratio normalized to 100)) [11] was 5 and the H1L1:H1L2 normalized median ratio (% (ratio normalized to 100)) [32] was 8. For the same substance, the H2L2:H2L1 normalized median ratio (% (ratio normalized to 100)) [12] was 92, the H2L2:H2L1 normalized median ratio (H2L2 part) [33] was 92% and the H2L2:H2L1 normalized median ratio [34] was 93%. It also gave an H1L1:H1L2 normalized median ratio [35] of 11%, an H1L1:H1L2 normalized median ratio [36] of 10% and an H2L2:H2L1 normalized median ratio [37] of 92%. It also gave an H1L1:H1L2 normalized median ratio [38] of 8%, an H1L1:H1L2 normalized median ratio [39] of 8% and an H1L1:H1L2 normalized median ratio (H1L2 part) [40] of 16%. For the same substance, the H1L1:H1L2 normalized median ratio (H1L2 part) [41] was 12%.
